Results on six substances are retold here after patent US20060211075.

The test system of data set [1] is peptide 25, Dab-modified pyrene analogue at Y-2.
For data set [2], the system named is peptide 23, Dap-substituted pyrene derivative at Y+3.

Chain of TrkA (chain, as listed by the source): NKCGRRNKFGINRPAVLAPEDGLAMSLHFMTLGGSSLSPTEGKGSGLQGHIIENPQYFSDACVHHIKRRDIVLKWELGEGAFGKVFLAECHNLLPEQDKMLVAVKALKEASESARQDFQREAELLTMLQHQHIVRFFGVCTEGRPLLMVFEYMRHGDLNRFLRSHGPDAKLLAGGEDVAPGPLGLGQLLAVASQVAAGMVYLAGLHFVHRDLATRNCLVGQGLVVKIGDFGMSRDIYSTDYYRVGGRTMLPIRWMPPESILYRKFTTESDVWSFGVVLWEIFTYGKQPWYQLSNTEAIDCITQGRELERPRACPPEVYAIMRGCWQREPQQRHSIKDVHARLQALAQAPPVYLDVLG
Chain of FynT (chain, as listed by the source): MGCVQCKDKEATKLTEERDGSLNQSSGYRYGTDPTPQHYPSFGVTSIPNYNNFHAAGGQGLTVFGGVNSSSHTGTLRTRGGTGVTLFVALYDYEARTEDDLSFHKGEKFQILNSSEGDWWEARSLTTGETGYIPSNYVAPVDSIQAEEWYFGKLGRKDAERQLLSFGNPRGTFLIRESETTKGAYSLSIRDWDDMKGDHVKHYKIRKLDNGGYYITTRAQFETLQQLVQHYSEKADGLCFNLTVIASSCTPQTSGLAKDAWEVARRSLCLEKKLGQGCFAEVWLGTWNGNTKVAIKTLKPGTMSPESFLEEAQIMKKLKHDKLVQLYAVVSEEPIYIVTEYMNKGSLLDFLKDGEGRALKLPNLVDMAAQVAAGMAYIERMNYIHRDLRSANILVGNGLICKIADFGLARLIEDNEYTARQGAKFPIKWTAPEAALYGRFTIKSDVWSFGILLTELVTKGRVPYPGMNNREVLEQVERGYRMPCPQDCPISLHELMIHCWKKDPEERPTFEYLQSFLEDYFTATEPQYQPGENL
Chain of Yes (chain, as listed by the source): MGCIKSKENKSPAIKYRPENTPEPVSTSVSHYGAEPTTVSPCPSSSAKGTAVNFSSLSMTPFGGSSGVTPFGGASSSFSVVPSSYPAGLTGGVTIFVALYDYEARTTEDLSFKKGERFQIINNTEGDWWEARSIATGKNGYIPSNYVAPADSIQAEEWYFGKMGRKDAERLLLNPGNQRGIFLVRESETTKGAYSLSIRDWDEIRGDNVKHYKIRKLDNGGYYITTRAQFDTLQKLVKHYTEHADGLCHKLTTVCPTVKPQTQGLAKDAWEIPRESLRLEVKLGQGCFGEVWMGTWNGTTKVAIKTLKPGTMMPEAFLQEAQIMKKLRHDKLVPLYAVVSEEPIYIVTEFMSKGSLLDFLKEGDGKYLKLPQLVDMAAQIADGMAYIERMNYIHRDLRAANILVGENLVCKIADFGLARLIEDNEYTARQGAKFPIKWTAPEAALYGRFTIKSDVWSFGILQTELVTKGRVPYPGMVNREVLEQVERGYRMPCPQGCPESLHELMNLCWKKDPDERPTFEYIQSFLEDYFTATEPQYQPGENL

As for EGF, the “phosphorylation of the peptide (fluorescence)” value in data set [1] and in data set [2] was “unable to effectively catalyze the phosphorylation of either 23 or 25” each time.
As to Fgr, in data set [2], the Km was 54 µM and the Vmax was 2.3 µmol/min/mg.
For FynT the same measures were 69 µM and 0.24 µmol/min/mg.
Turning to LynA, in data set [1], the Km came out at 43 µM and the Vmax came out at 2.6 µmol/min/mg. Besides, in data set [2], the Km turned out to be 140 µM and the maximum rate (Vmax) was 2.6 µmol/min/mg.
Consider TrkA, for which, in data set [2], the Km was 350 µM and the Vmax was found to be 1.1 µmol/min/mg.
For Yes the same measures were 37 µM and 3.3 µmol/min/mg.

Usually Km stands for the concentration of substrate that gives half-maximal velocity. By Vmax is commonly meant the rate approached at saturating substrate.
